In this assay the target is HA-tagged p62 (SQSTM1) (UniProt Q13501). The experiment in a line: coimmunoprecipitation and immunoblot, quantified. As to conditions: 293T cells; 0.2 μM Baf A1 for 6 h; parent: est. 1.0; read off a plot.
In the case of “Flag-tagged dengue virus (DENV) capsid protein K6R”, the ratio to parent is 0.81.

As to “Flag-tagged dengue virus (DENV) capsid protein K76R”, the ratio to parent is 0.22.

On to “Flag-tagged dengue virus (DENV) capsid protein K17R”, for which the ratio to parent was 1.1.

(Values after PMC9294600.)
